# Reference: patent US20260263521A1 (AIMED BIO, published 2026)
# T1: human CD200R1 expressed on cells (Jurkat-CD200R1, U937-CD200R1, HH cells) (human, UniProt Q8TD46 25-348)
# T1 sequence (looked up): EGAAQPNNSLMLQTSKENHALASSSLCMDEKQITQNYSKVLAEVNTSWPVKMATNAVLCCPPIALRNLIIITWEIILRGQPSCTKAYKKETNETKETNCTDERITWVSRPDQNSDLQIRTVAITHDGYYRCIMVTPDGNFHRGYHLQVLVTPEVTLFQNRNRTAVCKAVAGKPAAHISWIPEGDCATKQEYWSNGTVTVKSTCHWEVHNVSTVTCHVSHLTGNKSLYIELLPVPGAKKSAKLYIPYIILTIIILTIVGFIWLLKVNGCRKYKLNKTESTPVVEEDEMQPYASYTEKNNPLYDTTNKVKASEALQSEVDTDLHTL
# T2: monkey CD200R1 (ELISA antigen of Example 14) (monkey)
# T2 chain: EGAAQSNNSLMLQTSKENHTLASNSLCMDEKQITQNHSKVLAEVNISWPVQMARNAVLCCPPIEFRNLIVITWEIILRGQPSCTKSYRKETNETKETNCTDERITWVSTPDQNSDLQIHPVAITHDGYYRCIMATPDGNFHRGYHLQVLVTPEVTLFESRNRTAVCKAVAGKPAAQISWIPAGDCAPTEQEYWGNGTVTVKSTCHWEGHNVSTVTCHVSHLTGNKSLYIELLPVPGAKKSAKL
# T3: human CD200R1 with dual His-tags (human, UniProt Q8TD46 25-265)
# T3 construct: Captured on the SPR chip by an anti-histidine antibody; also called hCD200R1-his; not shown: dual His-tags
# T3 sequence (looked up): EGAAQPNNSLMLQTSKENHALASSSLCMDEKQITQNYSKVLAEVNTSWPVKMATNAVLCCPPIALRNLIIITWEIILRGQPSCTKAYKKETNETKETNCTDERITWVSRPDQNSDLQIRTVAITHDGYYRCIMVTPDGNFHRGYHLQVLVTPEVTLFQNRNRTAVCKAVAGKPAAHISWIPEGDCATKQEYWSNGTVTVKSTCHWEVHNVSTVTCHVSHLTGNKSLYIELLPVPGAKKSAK
# T4: cynomolgus CD200R1 with dual His-tags (cynomolgus, UniProt G7NZT0 25-266)
# T4 construct: Captured on the SPR chip by an anti-histidine antibody; also called CCD200R1-his; cCD200R1-his; not shown: dual His-tags
# T4 sequence: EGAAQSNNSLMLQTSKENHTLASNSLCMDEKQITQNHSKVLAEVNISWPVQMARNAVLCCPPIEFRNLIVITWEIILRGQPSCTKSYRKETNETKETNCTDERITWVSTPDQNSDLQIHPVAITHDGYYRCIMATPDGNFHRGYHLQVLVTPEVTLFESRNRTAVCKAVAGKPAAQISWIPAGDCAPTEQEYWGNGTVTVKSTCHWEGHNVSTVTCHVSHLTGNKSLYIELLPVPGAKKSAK
# T5: human CD200RLa (Sino Biological, 11620-H08H) recombinant protein (human, UniProt Q6Q8B3 24-239)
# T5 construct: Bought; construct not described
# T5 sequence (looked up): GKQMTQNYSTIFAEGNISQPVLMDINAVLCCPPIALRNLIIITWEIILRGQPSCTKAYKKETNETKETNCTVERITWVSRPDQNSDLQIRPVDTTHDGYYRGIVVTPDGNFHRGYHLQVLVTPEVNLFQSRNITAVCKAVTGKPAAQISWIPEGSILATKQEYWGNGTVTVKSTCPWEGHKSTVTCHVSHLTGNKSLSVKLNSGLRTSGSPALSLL
# B1: P001009 (IgG) (antibody, V domains shown)
# VH: EVQLLESGGGLVQPGGSLRLSCAASGFTFSSYDMSWVRQAPGKGLEWVSWISHGGGSIYYADSVKGRFTISRDNSKNTLYLQMNSLRAEDTAVYYCARDAPAYSAPLFDYWGQGTLVTVSS
# VL: QSVLTQPPSASGTPGQRVTISCSGSSSNIGNNAVNWYQQLPGTAPKLLIYYDSNRPSGVPDRFSGSKSGTSASLAISGLRSEDEADYYCAAWDDSLSGYVFGGGTKLTVL
# notes: also called P001009 WT; P001009 wt
# Tests used:
# [1] = biological target: T1, human CD200R1 expressed on cells …; test: cell-based or functional assay
# [2] = biological target: T1, human CD200R1 expressed on cells …; test: cell-based or functional assay; remark: listed apart in the source
# [3] = biological target: T1, human CD200R1 expressed on cells …; test: flow cytometry, Jurkat-CD200R cells
# Experimental: Two additional wells were treated with 10 μl of mouse IgG1K (BD, #555751) and 5 μl of commercial CD200R1 antibody (Biolegend, #329308) to determine CD200R1 expression on the cell line surface for cell quality control.
# The antibodies were serially diluted 10-fold from a maximum concentration of 100 nM to 10 nM, 1 nM, […], and were added to the pre-seeded cells. After reaction for 1 hour at 4° C., the cells were treated with Alexa-647 goat anti-human IgG (H+L) cross-adsorbed secondary antibody (Invitrogen, #A21445) and incubated for an additional 30 minutes at 4° C. After washing twice with FACS buffer, flow cytometry was performed using a Novocyte Flow cytometer (Agilent). Using GraphPad Prism software, the EC₅₀ was determined using a nonlinear graph model of log (agonist) vs. response-variable slope, as shown in Table 32.
# [4] = biological target: T2, monkey CD200R1 (ELISA antigen of …); test: ELISA on monkey CD200R1, normalized absorbance at 450 nm, 0.0192-300 nM; panel 'Cyno CD200R1'
# [5] = biological target: T3, human CD200R1 with dual His-tags; test: SPR (Biacore CM5), His-tagged antigen captured by anti-histidine antibody, antibody as analyte, 1:1 Langmuir fit
# Experimental: (§1) For the experiment, 30 μg/mL of an anti-histidine antibody was conjugated to a CM5 biacore chip via an amine bond while allowing to flow at 10 μl/min (10,000 RU). Then, 0.25 μg/mL of human or cynomolgus CD200R1 with dual His-tags was captured onto the completed chip for 60 seconds, and the binding ability of each antibody was analyzed. All experiments were performed by association of antibodies for 120 seconds and dissociation of antibodies for 600 seconds. The resulting graphs were fitted using a 1:1 Langmuir binding kinetic model (FIG. 16), and the kinetics of each antibody were calculated.
# [6] = biological target: T4, cynomolgus CD200R1 with dual His-tags; test: as above
# Experimental: as §1
# [7] = biological target: T5, human CD200RLa (Sino Biological, …); test: ELISA, plate-bound human CD200RLa (2 ug/mL), antibody 0.0192-300 nM, O.D 450 nm; panel 'recombinant human CD200RLa'
# Procedure, shortened: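 Plates coated overnight (16 h, 4° C) with human or cynomolgus CD200RLa recombinant protein, blocked with 3% skim milk; bound antibody detected by TMB colour development, reaction stopped before reading.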
binder,measurement,setting,value
B1,"IC50 (nM) of IL-6 inhibition, LPS-treated U937-CD200R1 cells",[1],0.35 nM
same,"IC50 (nM) of TNF-α inhibition, LPS-treated U937-CD200R1 cells",[1],0.62 nM
same,"EC50 (nM), degree of signal transduction by the Dok2 protein",[2],1.57 nM
same,EC50,[3],0.22 nM
same,EC50 (read off the curve),[4],~5 nM
same,Kd,[5],0.0475 nM
same,koff,[5],0.000134 s⁻¹
same,kon,[5],2.81e+06 M⁻¹ s⁻¹
same,Kd,[6],2.08 nM
same,koff,[6],0.0117 s⁻¹
same,kon,[6],5.63e+06 M⁻¹ s⁻¹
same,binding result,[7],no binding (tested: 300 nM)
